This passage reports Kd results from article PMC6349121.

This assay concerns the target GST-cIAP1R (cIAP1 RING domain, residues 556-C, with GST) (human) (UniProt Q13490). The assay is described as follows: SPR; as a1, but UbcH5B–Ub variants diluted in running buffer containing 0.6 mM UbΔGG; GST-cIAP1R coupled to a CM-5 chip, 25 °C; steady-state affinity analysis. Background: SPR reads the build-up and loss of mass on a sensor chip optically.

What is called Kd is the concentration at which binding is half-saturated. Lower therefore signals a tighter complex. Regarding “UbcH5B–Ub in the presence of 0.6 mM UbΔGG (UbcH5B–Ub with backside-bound UbΔGG) (from UniProt P62837 1-147; P0CG47 1-76; P0CG47 1-74) (complex)”, the Kd is 220 nM.
